Measurements reported in the domain aggregation screens of Martell et al. (2025).

Assay: soluble fraction after stress (log2 fold change); higher = more stays soluble; pooled small domains, quantitative proteomics
Conditions: stress: 75 degC
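Note: 20 min heating vs room temperature control held 20 min.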

Sequence: HMQTTEDMEINAKVDEYLREMYLWNDEYKTLNLDHNKGYEDFFYDALGSMTTNTLDKKTYVGSDGKTYYNL
- soluble fraction (log2): -0.205

Sequence: HMQTYTYYIAKNDISIGQKITPDMLIEKQVNLGDSKDRYLSREQLETGKYIAVRQIPAGELISSASANE
- soluble fraction (log2): 0.102

Sequence: HMQVAPQVERLLRVMGNETLSLSDIMGRMGLSDKKNFRESYLVPALRSAVIEMTIPDKPNSSLQKYRRIHE
- soluble fraction (log2): -0.634

Sequence: HMQVEEKNKKIELYIEGKIKELESNLMYVPNENKKKLLMAFMNRNEDIEIIKTKIDTIFNKSVAAYKENM
- soluble fraction (log2): -0.302

Sequence: HMQVIDNHWRPSRDALDILLRDGISEHFIEDAIPEFILYWRERGTQDSNWNSRFLQHIRLQWARYTNAV
- soluble fraction (log2): -1.67

Sequence: HMQVPDLYRTLGVGRDATTEAIEAAYVGWQARLSAGEPISTQEWERLRYAHEVLSNPQRRSLYDSLVAET
- soluble fraction (log2): -0.0937

Sequence: HMQVPVNVSMEILDWVIAHIKIDALPNQIREYLNLWVNGEKEPTFNQVEKVSKATGIPLGYFFLQTPPIED
- soluble fraction (log2): -1.79

Sequence: HMQVQHVWNRLKRPNGDVLYEINRDHPLVSASLDAAADRGAIETLLRQIEQSLPVNQLYVDMNADEHFE
- soluble fraction (log2): -0.602

Sequence: HMQVSDAAQLAEVVKTVLAENPAAVGDYRKGKKAAIGFLLGQVMRHMRGTANPAVARQLLEQALEDE
- soluble fraction (log2): -0.076

Sequence: HMQVSDLSAIDSLIDKVLSEQQAAVQDFRSGQGKAMGFLIGKVMQASDGKANPKVIRELMGKKLA
- soluble fraction (log2): 0.0534

Sequence: HMQVSIGERVKLARMSAGLNQRQLGKEMGMSAMAISKYETGEVVPNSRVLIQLSQTLHVPLDFFFRS
- soluble fraction (log2): -3.04

Sequence: HMQVTDADFDQIRLAVLSQLKQNSLTVAELLKIIPFKEQKVMPVIRFLIDNRVLEHGTDMKLTVGNSVK
- soluble fraction (log2): -0.223

Sequence: HMQVTIGADLAEHAARLDVQISDVVKLIKSGVSEGEIKVGLTKLETRLAHPELALVENKLAYLKALIAES
- soluble fraction (log2): -2.27

Sequence: HMQYALEDDLDSAIKLLTGKGLSGTVAWGWSDTYINVGKKSYSMEFIAKMLLRLGEGSRVTIQVDPA
- soluble fraction (log2): -4.62

Sequence: HMQYIINFEYSGMLLREYLRGVLGLSHGTLTALKKDPLGILLNGEHATVRAVLHAGDRLTLALE
- soluble fraction (log2): -3.51

Sequence: HMQYKVMDVTVDGNPVIEFQNLNSKIKWIENNPDAIIQNIKTSSFEADQKRIVGTSRGPFWIVIKPDF
- soluble fraction (log2): -0.424

Sequence: HMQYRQRRGLERMELILDAATRVVAEVGYERTTTNAIATRAGISPGSLYQYFSSKEDIASALWERYAE
- soluble fraction (log2): -0.0812

Sequence: HMRAGEAVTGQVIGVKEDEIILSIAGSKSEGIITRSEFTNEPNVDLTTKVSVGDELEVKVLKVNDGEGMAS
- soluble fraction (log2): -0.317

Sequence: HMRAKPLILLDGREISAEELFSLDKNSIKSIEVLKDETALAQYGEKAKNGVVLVVTKSAAAS
- soluble fraction (log2): 0.00789

Sequence: HMRALPAGQADLLKWIDGVTPRSVEELELLSGLEPGRLSELLMELELAGIVRAVAGDSYIKISKS
- soluble fraction (log2): -0.649

Sequence: HMRAPETEITYTEFKTALRAGQIETATVGIEQISGKLTDGDLYRTVRVDDPDLLKDLEANHVNAAGRV
- soluble fraction (log2): 0.0537

Sequence: HMRASQGRNELILSLLRGHELSILELLEGLEKQGVRVARPTLTKDLNELVSRGSVEATAPPRSKNRTYRIP
- soluble fraction (log2): -0.986

Sequence: HMRDFLMDSTKNKLSKDQVQLSRIFLWFGNDFGSKAERLEFISRYSGMDFNQPKIDYLTYDWSLNQ
- soluble fraction (log2): 0.286

Sequence: HMRDLITYVVQINGKLRGKLEVAPDTDPEELKALALEVENVKRSLEGWVVKKVIVVPGKMVSIAAG
- soluble fraction (log2): -1.77

Sequence: HMRDLLPHFQRELQFLQTHRNEFAAAYPELGGRLATASDLLDDPHVERMVQSFALLAARVHKRLDDDF
- soluble fraction (log2): 0.121

Sequence: HMRDLTARQQQILALIRQHIADTGFPPTRAEIAAQLGFRSPNAAEEHLKALARKGVIELASGASRGIRLK
- soluble fraction (log2): -0.86

Sequence: HMRDPFDALSARERAVASLVQRGLRNKEVASELGLTEGTVKVHLHKVFDKLGIRGRTELILLAQER
- soluble fraction (log2): -1.35

Sequence: HMRDQAIDIYKTVHSVAEPYKEVFLLRVLGELSFKEISHIFGKSESWAKVTFFRAKIKVVEKREES
- soluble fraction (log2): -3.97

Sequence: HMRDQQHNIYLLEKAKRLYEEFLGDNRHIIAAEMARFEAVLETQDAIIIQRAQQQFSEFLNRFDG
- soluble fraction (log2): -2.12

Sequence: HMRDRYEYLKELRLYLSPLGRTEEDRVIEYYAELIGDKIESGIPENGVLSQLGTPRELADKILAETQEY
- soluble fraction (log2): -0.377

Sequence: HMRDSLVGLEGVVVREVDDETLAGKVQIGSMEWSARSESGRIPAGRRVVVLRAEGVHIVVKEV
- soluble fraction (log2): -0.407

Sequence: HMRDSWNEATKEKRYTEAYDALNSALKKTPATPHALSDALWIARELGRTNEEVQRLEWRLYALLTWIS
- soluble fraction (log2): 0.241

Sequence: HMRDTDAEVTYKLNEPFKTMGSVSVEGKVLEFAGSKWFARAAEFASNTEVYPLAKNRVRLTFTFHGLTAP
- soluble fraction (log2): 0.146

Sequence: HMREEFIGVLDGKVAIFHGRPERKGPLKEVTAIEVDKLPRQEQADLEKGLVIRTDKEKLQLMEGLAALLD
- soluble fraction (log2): 0.683

Sequence: HMREELIALYRAIARLSEDEQELLNLFYFARRPLSEIAQLTGMTPGAAKTRLYRARRHLRREMEEDGYG
- soluble fraction (log2): -1.07

Sequence: HMREGLRHLRVRMPGGAGETLAMLYREGEVLSQSSDGAFIEVEIRVAQSVAGRLLQMPGVQLTEEVG
- soluble fraction (log2): -0.941

Sequence: HMREGNELLGKEGVTVSELRPAGIALIDGRRTDVVTDGEFVAVDQAVEVVEVSGNRVVVRRS
- soluble fraction (log2): 0.305

Sequence: HMREIDIWVAEDADSQRIDKYLSMVVEDLSRSRIASLIEGGSILVNGEVIRAKYKVKPADHITAAFEDEM
- soluble fraction (log2): -1.27

Sequence: HMREIKSNEILLEVENLKNSEFFNDINFNIKKGEIVGFSGLIGAGRTELALTLFGYYKAESGKVIQ
- soluble fraction (log2): 0.101

Sequence: HMREIRIIAEEGHGRLDAFLAGREELGLSRSRIKGLIEEGQVTLNGAVPKAKQPVSPGDEIVVSVPD
- soluble fraction (log2): 0.192

Sequence: HMREKMKGKILDYNFQESRGIISADDGNRYSFENSQWKGTQSPKVNQIVDFEIDGQNAKDIYLDK
- soluble fraction (log2): 0.0796

Sequence: HMRESLSEAERHPRYLEGEDVVRMFLLMGDLSRVEAEVIALQWNAQEADRVGLPQDAKVFRTRAR
- soluble fraction (log2): -0.523

Sequence: HMREVDKRYYKINIAGTDRIFTNVYRVGDRYSAYEADKNGKPGKFLYSLSQAEIDRAVISGSFDFK
- soluble fraction (log2): -0.225

Sequence: HMREVSPEDLALMRRIDAWHLEHPFAGARLLRDLLRPEGFQAGRRHIGTLMARMGIEALYRK
- soluble fraction (log2): -0.383

Sequence: HMREYVGLSPFNKEKTPSFYVNDEKGQFFDFSSGKNGDLITFLQETERLTFMEAVERLAAEAGLPMPA
- soluble fraction (log2): -0.742

Sequence: HMRFANGHLIWDTIIELRNAERRINRRALADLTGLKPGVVDDHVERWIEKDQLRRAGNGELEVV
- soluble fraction (log2): -1.36

Sequence: HMRFMRVSQSKSKNSTSLYIIESVYTKDNKHTTRIVKKLGTVEELSKEHEDPLAWAKEVAKQMTEEAEQN
- soluble fraction (log2): -0.569

Sequence: HMRFNIGNVIEHYKLNTEDLAKVLFPTVKYPKQAFDRVLKGEANLDVIQLERLANHIGVLVTDLF
- soluble fraction (log2): -1.18

Sequence: HMRFQGKISDWNDEKGYGFVEPNGGGTRAFVHIKSFTDLPRRPINGDIIIYETTTDEKNRVQANNISFTR
- soluble fraction (log2): -0.194

Sequence: HMRFSYLNIETRKDISSLINKSEITHSSYNNNEYLYKIKSKKTDDFKDLISLIDEKDLISYSIDS
- soluble fraction (log2): -1.14

Sequence: HMRFTVSDKMDMLLKSLSAGQSMPFKSLFASASTKSEVIVTFLALLELMKLNQFVVWQDQILGEIEIERR
- soluble fraction (log2): -0.751

Sequence: HMRGDQLREHLLWTAKDVFLELGFERASMDAVAARAETSKRSLYAHFESKEKLFLAVIDLVRG
- soluble fraction (log2): -3.54

Sequence: HMRGESFSTLVSILQEMSARKAAQVLNGLSEGLAVEVLRALPSDVAGDILGRMDAAKAAALMEQLST
- soluble fraction (log2): -0.46

Sequence: HMRGGLATLTPRERQVLALMAEGRSNAGIAAELVVSGGAVEKHVASIFTKLGLPPDESDNRRVLAVLRHLG
- soluble fraction (log2): -1.74

Sequence: HMRGHASVEIKRIVYKYKLTDQELAKITGMKASDFPIYHDHLQLILPKRYWARVLDALQNYEKEHES
- soluble fraction (log2): -4.04
